{"source": "paper PMC12455584", "molecular_target": "T1, scIHF-His (single-chain IHF, ihfA-linker-ihfB-6xHis) internal_change (Salmonella enterica serovar Typhimurium 14028s?) (UniProt P0A1S0)", "T1 sequence": "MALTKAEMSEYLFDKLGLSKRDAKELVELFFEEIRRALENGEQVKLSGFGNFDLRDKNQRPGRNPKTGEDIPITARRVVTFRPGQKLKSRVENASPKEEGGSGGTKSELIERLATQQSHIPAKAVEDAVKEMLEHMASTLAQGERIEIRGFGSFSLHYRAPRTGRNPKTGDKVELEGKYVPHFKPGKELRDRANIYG", "assay": "EMSA", "conditions": "EMSA: 25 mM Tris pH 8, 75 mM NaCl, 10% glycerol, 0.5 mM DTT, 0.5 mM EDTA, 1 ug poly(dIdC), 0.1 mg/ml BSA, 0.87 pmol DNA in 20 ul, 37 C 10 min; gel 4-15% PAGE …", "data": [{"sequence": "CCCTCGTGTACCATTGTTTACTTTTTGATCTAAAAATTACATCAAATGAACACAAAAAACGGTATAAAAAACGCTC (double strand) [intA promoter IHF BS(+)]", "values": [{"measurement": "binding", "value": "binds"}]}]}
